Data reported in paper doi:10.1101/2023.09.06.556503 (bioRxiv, 2023).

B1: IgG1 FD-11A antibody (antibody, V domains shown)
VH: EVQLVESGGGVVQPGRSLRLSCAASGFTFSSYGMHWVRQAPGKGLEWVAVIWYDGSNKYYADSVKGRFTISRDNSKNTLYLQMNSLRAEDTAVYYCAKGPDILTGYYNYYYYGMDVWGQGTMVTVSS
VL: QSVLTQPPSVSGAPGQRVTISCTGSSSNIGAGYDVHWYQQLPGTAPKLLIYGNSNRPSGVPDRFSGSKSGTSASLAITGLQAEDEADYYCQSYDSSLSGFYVVFGGGTKLTVL
notes: also called FD-11A IgG; source: ExpiCHO, transfected, purified (MabSelect SuRe); copies: 2 + 2
B2: FI-3A antibody (IgG1) (antibody, V domains shown)
VH: EVQLLESGGGLIQPGGSLRLSCAASGFTVSSNYMSWVRQAPGKGLEWVSVIYSGGSTYYADSVKGRFTISRDNSKNTLYLQMNSLRAEDTAVYYCARDHVRPGMNIWGQGTMVTVSS
VL: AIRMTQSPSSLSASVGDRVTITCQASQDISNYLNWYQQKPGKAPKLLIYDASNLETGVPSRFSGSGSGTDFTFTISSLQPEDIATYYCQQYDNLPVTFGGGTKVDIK
notes: source: ExpiCHO, transfected, purified (MabSelect SuRe); copies: 2 + 2
B3: EY-6A antibody (IgG1) (antibody, V domains shown)
VH: EVQLVESGGGVVQPGRSLRLSCAASAFTFSSYDMHWVRQAPGKGLEWVAVISYDGSNKYYADSVKGRFTISRDNSKNTLYLQMNSLRAEDTAVYYCAKDGGKLWVYYFDYWGQGTLVTVSS
VL: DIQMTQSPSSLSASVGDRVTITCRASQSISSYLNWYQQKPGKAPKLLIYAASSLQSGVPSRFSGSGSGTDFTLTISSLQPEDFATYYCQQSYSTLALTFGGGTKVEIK
notes: copies: 2 + 2
B4: REGN10987 antibody (IgG1) (antibody, V domains shown)
VH: QVQLVESGGGVVQPGRSLRLSCAASGFTFSNYAMYWVRQAPGKGLEWVAVISYDGSNKYYADSVKGRFTISRDNSKNTLYLQMNSLRTEDTAVYYCASGSDYGDYLLVYWGQGTLVTVSS
VL: QSALTQPASVSGSPGQSITISCTGTSSDVGGYNYVSWYQQHPGKAPKLMIYDVSKRPSGVSNRFSGSKSGNTASLTISGLQSEDEADYYCNSLTSISTWVFGGGTKLTVL
B5: FD-5D antibody (IgG1) (antibody, V domains shown)
VH: EVQLVESGGGLVQPGGSLRLSCAASGFTFSSYSMNWVRQAPGKGLEWVSYISSSSSTIYYADSVKGRFTISRDNAKNSLYLQMNSLRAEDTAVYYCASPGGITAAGTSVLFGYYGMDVWGQGTTVTVSS
VL: not shown
notes: as for B2

Legend:
[1] = biological target: Biotinylated SARS-CoV-2 (Wuhan) RBD, held on the SPR chip (SARS-CoV-2 (Wuhan), UniProt P0DTC2, biotin (EZ-Link Sulfo-NHS-LC-biotin); Lys15 within the N-terminal AviTag is named as the biotinylation site); test: SPR; settings: both partners purified
[2] = biological target: SARS-CoV-2 (Wuhan) receptor-binding domain, soluble monovalent RBD (RBD-H) (SARS-CoV-2 (Wuhan), UniProt P0DTC2); test: SPR; settings: both partners purified

Binder | Kd [1] [nM] | binding result [2] | binding result [1]
B1 | 1230 | – | –
B2 | – | binds | binds
B3 | – | binds | binds
B4 | – | – | binds
B5 | – | binds | binds
